The assay deals with Rabbit skeletal actin (actin filaments) (rabbit) (UniProt P68135). Put plainly: high-speed atomic force microscopy.

With “Recombinant human alpha-actinin-1 ABD-E235K (from UniProt P12814 1-892) (domain or fragment)”, the dwell time at 1 uM ABD-E235K is 0.39 s, the dwell time at 2 uM ABD-E235K worked out at 0.4 s and the dwell time at 3 uM ABD-E235K was found to be 0.51 s.

Source of the values: publication doi:10.1101/2025.11.16.688667.
